We go through five molecules from patent US11905559B2, “Materials and methods for controlling gene expression” (priority 2016, dated 2024).

Numbering of substitutions follows the chain as printed. Names and notes keep the numbering of the source.

This data set deals with lac Z expression. Kind of data set: β-galactosidase reporter assay (xpt-lacZ fusion). The settings on record: for lac Z expression / transcriptional control (in words): presence and absence of guanine, B. subtilis. Format: cell-based, B. subtilis. The method, then:
Kissing-loop mutants were analyzed to determine whether they can exert riboswitch activities by controlling transcription termination, given that the guanine binding was retained in all of them. To test this, a β-galactosidase reporter assay was performed in B.subtilis. […] The gene expression is repressed in wild-type due to the transcription termination in the presence of guanine. […] The fast kissing dynamics between the L2-L3 probably have a stabilizing effect on P1, and therefore an increase in the transcription termination is observed. […] This underscores that the L2-L3 dynamics are directly involved in the P1-helix formation, which affects the terminator hairpin downstream that ultimately results in an alteration of the riboswitch activities.
To assess if the aptamer mutants can exert a transcriptional control similar to the previously reported wild-type xpt-pbuX riboswitch, a xpt-lacZ fusion was constructed as described by Mandal et al., “Riboswitches control fundamental biochemical pathways in Bacillus subtilis and other bacteria”. Cell 113, 577-586 (2003). Briefly, nts −121 to +197 relative to the transcriptional start site of the xpt-pbuX operon from B. subtilis 1A1 (BGSC, Columbus, Ohio) was PCR amplified and cloned upstream of the lacZ reporter gene into pDG1661 vector. After confirming the cloned sequence, plasmid variants were integrated into the amyE locus of the 1A1 strain. Transformants were selected for double markers, specifically for chloramphenicol (5 μg/ml) resistance and sensitivity to spectinomycin (100 μg/ml). Selected B. subtilis colonies were subsequently grown in minimal media (25 g/L K2HPO4·3H2O, 6 g/L KH2PO4, 1 g/L sodium citrate, 0.2 g/l MgSO4·7H2O, 2 g/L Na2SO4, 50 μM FeCl3, 2 μM MnCl2, 50 μg/ml L-Tryptophan, 50 μg/ml L-Lysine, 50 μg/ml L-Methionine, 0.4 g/100 ml glucose, and 0.2 g/100 ml glutamate) at 37° C. with vigorous shaking. Purines were added at a final concentration of 0.1 mg/ml. Cells were harvested at mid-logarithmic growth phase (A600˜0.1-0.4), and resuspended in the above buffer for the reporter assay. The color development was recorded by measuring absorbance, A420 at the end of the reaction with appropriate controls. Data is represented in Miller Units calculated from the following relation:
[formula] where Δt is the total duration taken in the substrate cleavage by […], measured as absorbance, A420. The Miller Units shown in FIG. 4A represents mean±standard deviation from 3 independent experiments, wherein each independent experiment was performed in duplicate.

B1: wt: 69-nucleotide full-length wild-type guanine sensing aptamer RNA sequence from xpt-pbuX operon in B. subtilis (SEQ ID NO: 1) (nucleic acid)
chain: CACUCAUAUAAUCGCGUGGAUAUGGCACGCAAGUUUCUACCGGGCACCGUAAAUGUCCGACUAUGGGUG
modifications: RNA, backbone and methylation of C not given here
Take B1: the “lac Z expression / transcriptional control (in words)” value is given as “repressed”.

B2: m6: m6 mutant guanine sensing aptamer RNA (SEQ ID NO: 7); U67A, shorter P3 hairpin and larger L3 loop (nucleic acid)
chain: B1 chain with U54A
modifications: RNA, backbone and methylation of C not given here
notes: U67A, shorter P3 hairpin and larger L3 loop
On to B2, for which the “lac Z expression / transcriptional control (in words)” value was “highly repressed”. Also, the “Repression exceeding the wild-type repression” value (in the presence of guanine) is about 3 fold.

B3: m7: m7 mutant guanine sensing aptamer RNA (SEQ ID NO: 8); U25C in J1/2 (nucleic acid)
chain: B1 chain with U12C
modifications: RNA, backbone and methylation of C not given here
Turning to B3, the “Expression higher than the wild-type” value (in the presence of guanine) is reported as about 2.5 fold.

B4: m4: m4 mutant guanine sensing aptamer RNA (SEQ ID NO: 5); A59G/U67C in the P3 hairpin (nucleic acid)
chain: B1 chain with A46G, U54C
modifications: RNA, backbone and methylation of C not given here
notes: A59G/U67C in the P3 hairpin
With B4, the “lac Z expression / transcriptional control (in words)” value is given as “moderately repressed”. Where the note is “in the presence of guanine”, the “Expression higher than the wild-type” value is recorded as about 7 fold.

B5: m1: m1 mutant guanine sensing aptamer RNA (SEQ ID NO: 2); G37 replaced with adenine in the L2 loop (nucleic acid)
chain: B1 chain with G24A
modifications: RNA, backbone and methylation of C not given here
notes: G37 replaced with adenine in the L2 loop
On to B5, for which the “lac Z expression / transcriptional control (in words)” value is “completely de-repressed”.
